Data as given in patent US7569660 (UNIVERSITY OF CHICAGO, dated 2009).

Target: the molecule itself

B1: NM R2E2 repeat expansion variant (other)
chain: MSDSNQGNNQQNYQQYSQNGNQQQGNNRYQGYQAYNAQAQPAGGYYQNYQGYSGYQQGGYQQYNPQGGYQQYNPQGGYQQYNPDAGYQQQYNPQGGYQQYNPQGGYQQQFNPQGGRGNYKNFNYNNNLQGYQAGFQPQSQGMSLNDFQKQQKQAAPKPKKTLKLVSSSGIKLANATKKVGTKPAESDKKEEEKSAETKEPTKEPTKVEEPVKKEEKPVQTEEKTEEKSELPKVEDLKISESTHNTNNANVTSADALIKEQEEEVDDEVVND
rate of conversion to a β-sheet rich structure relative to wild-type NM: ~2 fold
